Experimental data from publication PMC9699129.

Tests used:
[1] = target: MsFcγRIα-EGFP (largemouth bass FcγRIα fused to EGFP, expressed on transfected HEK293 cells) (largemouth bass (Micropterus salmoides)); assay: flow cytometry on cells; MsFcγRIα-EGFP-transfected HEK293 cells in serum-free DMEM, 20 μg/mL purified MsIgM added for 24 h at 37 °C; bound MsIgM detected with anti-MsIgM mAb MM06H and Alexa Fluor 647 goat anti-mouse IgG; n = 3
[2] = target: MsFcγRIα-EGFP (largemouth bass FcγRIα fused to EGFP, expressed on transfected HEK293 cells) (largemouth bass (Micropterus salmoides)); assay: flow cytometry on cells; MsFcγRIα-EGFP-transfected HEK293 cells in serum-free DMEM, 20 μg/mL purified MsIgM added for 12 h at 37 °C; bound MsIgM detected with anti-MsIgM mAb MM06H and Alexa Fluor 647 goat anti-mouse IgG; n = 3
[3] = target: MsFcγRIα-EGFP (largemouth bass FcγRIα fused to EGFP, expressed on transfected HEK293 cells) (largemouth bass (Micropterus salmoides)); assay: flow cytometry on cells; MsFcγRIα-EGFP-transfected HEK293 cells in serum-free DMEM, 20 μg/mL purified MsIgM added for 6 h at 37 °C; bound MsIgM detected with anti-MsIgM mAb MM06H and Alexa Fluor 647 goat anti-mouse IgG; n = 3

percent of MsFcγRIα-expressing HEK293 cells with MsIgM after 24 h incubation [1]: 40.3%
percent of MsFcγRIα-expressing HEK293 cells with MsIgM after 12 h incubation [2]: 26.3%
percent of MsFcγRIα-expressing HEK293 cells with MsIgM after 6 h incubation [3]: 19.7%
Substance: largemouth bass IgM (MsIgM), purified from serum (natural protein)
